Data from article PMC12065904.

Molecular target: rabbit skeletal muscle actin, polymerized in vitro (F-actin) (rabbit) (UniProt P68135)
Assay: co-sedimentation; F-actin cosedimentation: CaVβ proteins incubated with polymerized actin in polymerization buffer (0.2 mM CaCl2, 50 mM KCl, 2 mM MgCl2, 1 mM ATP, 5 mM HEPES pH 8.0), 25 µM phalloidin; 150,000 × g, 20 min, 4 °C; densitometry of pellet over total; also at 30–150 mM NaCl and after 30 or 90 min of incubation

percent cosedimented with actin: > 80%
Substance: CaVβ4 R482X (truncated, naturally occurring variant of human CaVβ4 linked to juvenile myoclonic epilepsy) (from UniProt O00305-1 1-431) (domain or fragment)
